Literature values as cited in PMC10046553.
pKd: −log10 of the molar value.

Molecular target: CD71 (transferrin receptor 1) (Homo sapiens) (UniProt P02786)
Sequence (P02786 89-760): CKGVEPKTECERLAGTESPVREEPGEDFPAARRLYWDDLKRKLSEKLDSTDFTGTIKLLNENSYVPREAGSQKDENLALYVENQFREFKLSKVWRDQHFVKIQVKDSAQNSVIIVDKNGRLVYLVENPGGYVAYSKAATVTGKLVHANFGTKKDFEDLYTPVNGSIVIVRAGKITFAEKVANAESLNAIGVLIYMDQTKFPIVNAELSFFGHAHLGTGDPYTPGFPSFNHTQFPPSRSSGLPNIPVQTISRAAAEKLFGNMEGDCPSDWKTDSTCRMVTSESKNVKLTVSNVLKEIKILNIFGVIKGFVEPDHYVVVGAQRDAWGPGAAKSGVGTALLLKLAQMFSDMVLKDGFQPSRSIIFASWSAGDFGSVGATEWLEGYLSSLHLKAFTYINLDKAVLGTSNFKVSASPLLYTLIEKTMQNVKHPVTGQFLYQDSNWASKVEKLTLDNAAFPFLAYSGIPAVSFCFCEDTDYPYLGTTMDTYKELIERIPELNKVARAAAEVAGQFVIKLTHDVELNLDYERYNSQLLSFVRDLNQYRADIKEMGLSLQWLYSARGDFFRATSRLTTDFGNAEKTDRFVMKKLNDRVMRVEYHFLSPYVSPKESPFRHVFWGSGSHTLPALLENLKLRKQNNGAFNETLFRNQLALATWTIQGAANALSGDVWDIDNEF

pKd: 6.12
Substance: Human serum albumin (from UniProt P02768)
